# According to the RNAGym collection of RNA variant scans (doi:10.7554/elife.80360):
# B1: Hairpin Ribozyme (parent)
# chain: GUCCUCUUUCACGUGCGCGUGAAAGAGAGAAGUGAACCAGAGAAACACACGUUGUGGUAUAUUACCUGGUA
# Variants of: B1
# Assay: self-cleavage, relative activity (ratio to wild type); higher = more cleavage; co-transcriptional
row,Variant,self-cleavage
1,G1C A11U,0.179
2,G1C A22G,0.255
3,G1C A23C,0.103
4,G1C A23U,0.197
5,G1C A24G,0.129
6,G1C A26C,0.14
7,G1C A26G,0.239
8,G1C A28G,0.167
9,G1C A30G,0.322
10,G1C A35G,0.121
11,G1C A36C,0.107
12,G1C A36G,0.105
13,G1C A39C,0.225
14,G1C A39G,0.146
15,G1C A41G,0.129
16,G1C A44C,0.125
17,G1C A45C,0
18,G1C A45G,0.0824
19,G1C A47G,0.13
20,G1C A47U,0.152
21,G1C A59G,0.0434
22,G1C A59U,0.114
23,G1C C3A,0.257
24,G1C C6G,0.249

row,Variant,self-cleavage
1,G1C C6U,0.249
2,G1C C10G,0.247
3,G1C C10U,0.241
4,G1C C16G,0.238
5,G1C C37U,0.177
6,G1C C38U,0.198
7,G1C C46A,0.208
8,G1C C46G,0.307
9,G1C C46U,0.0993
10,G1C C50A,0.147
11,G1C C50U,0.321
12,G1C C65A,0.141
13,G1C G13A,0.0408
14,G1C G13C,0.179
15,G1C G13U,0.225
16,G1C G15A,0.184
17,G1C G17A,0.232
18,G1C G17C,0.295
19,G1C G21A,0.109
20,G1C G21U,0.274
21,G1C G25A,0.154
22,G1C G25C,0.159
23,G1C G27A,0.16
24,G1C G29C,0.203

row,Variant,self-cleavage
1,G1C G32A,0.198
2,G1C G34U,0.344
3,G1C G40C,0.0947
4,G1C G42C,0.272
5,G1C G51C,0.0946
6,G1C G51U,0.181
7,G1C G56A,0.0459
8,G1C G56C,0.202
9,G1C G57A,0.134
10,G1C G57C,0.118
11,G1C G68A,0.362
12,G1C G69A,0.141
13,G1C G69U,0.144
14,G1C U2A,0.251
15,G1C U2G,0.306
16,G1C U7G,0.258
17,G1C U8A,0.27
18,G1C U14A,0.046
19,G1C U14C,0
20,G1C U20C,0.241
21,G1C U52C,0.132
22,G1C U53A,0.2
23,G1C U55A,0.0884
24,G1C U55C,0.18

row,Variant,self-cleavage
1,G1C U58G,0.284
2,G1C U62A,0.0347
3,G1C U62G,0.4
4,G1C U63G,0.0496
5,G1C U67C,0.119
6,G1U,0.13
7,G1U A11G,0.143
8,G1U A11U,0.201
9,G1U A22C,0.146
10,G1U A24U,0.117
11,G1U A28U,0.198
12,G1U A35C,0.0858
13,G1U A35G,0.0705
14,G1U A36G,0.184
15,G1U A39G,0.121
16,G1U A41G,0.0954
17,G1U A44C,0.0421
18,G1U A47U,0.0955
19,G1U A59G,0.216
20,G1U A61C,0.0683
21,G1U A61G,0.041
22,G1U A61U,0.116
23,G1U A71C,0.273
24,G1U C3A,0.161

row,Variant,self-cleavage
1,G1U C3G,0.122
2,G1U C4G,0.213
3,G1U C6U,0.139
4,G1U C10G,0.231
5,G1U C16A,0.111
6,G1U C18G,0.131
7,G1U C46A,0.106
8,G1U C48A,0.134
9,G1U C50U,0.0718
10,G1U C65G,0.236
11,G1U C65U,0.0631
12,G1U G13C,0.151
13,G1U G13U,0.156
14,G1U G15A,0.171
15,G1U G17U,0.162
16,G1U G19A,0.208
17,G1U G21A,0.129
18,G1U G27A,0.148
19,G1U G34A,0.143
20,G1U G34U,0.19
21,G1U G40C,0.055
22,G1U G51A,0.205
23,G1U G51C,0.175
24,G1U G54C,0.176

row,Variant,self-cleavage
1,G1U G56U,0.0984
2,G1U G57A,0.175
3,G1U G69A,0.0764
4,G1U U2G,0.22
5,G1U U5A,0.163
6,G1U U7A,0.131
7,G1U U7G,0.088
8,G1U U8A,0.144
9,G1U U8G,0.0482
10,G1U U9C,0.0677
11,G1U U9G,0.224
12,G1U U14A,0.041
13,G1U U14C,0.128
14,G1U U20A,0.1
15,G1U U33A,0.123
16,G1U U33G,0.0782
17,G1U U52C,0.261
18,G1U U53A,0.0738
19,G1U U55A,0.224
20,G1U U55G,0.104
21,G1U U58A,0.0365
22,G1U U60G,0.259
23,G1U U62A,0.147
24,G1U U67A,0.105

row,Variant,self-cleavage
1,G1U U70C,0.142
2,U2A A11G,0.344
3,U2A A23C,0.262
4,U2A A24G,0.286
5,U2A A24U,0.29
6,U2A A26G,0.321
7,U2A A28G,0.434
8,U2A A30U,0.0131
9,U2A A31C,0.13
10,U2A A36G,0.194
11,U2A A36U,0.144
12,U2A A43U,0.0943
13,U2A A44C,0.0634
14,U2A A44U,0.0374
15,U2A A45C,0.154
16,U2A A45G,0.0349
17,U2A A47C,0.183
18,U2A A47G,0.102
19,U2A A49C,0.149
20,U2A A61C,0.0595
21,U2A A64U,0.0942
22,U2A A71C,0.656
23,U2A A71U,0.186
